This is an account of results in US20050090429 (published 2005).

The chains are these.
B1: YS-1-52 (peptide)
chain: GFWWKTFG
modifications: not fully specified; PTR 3213 core; fluorescein amide, aminopentanoic linker; cyclic GlyS2* to GlyS2*; D-Trp; C-terminal amide
B2: YS-1-76 (peptide)
chain: FGFWWKTFG
modifications: not fully specified; PTR 3219 core; fluorescein amide, aminohexanoic linker; cyclic GlyS2* to GlyS2*; D-Phe1, D-Trp; C-terminal amide
B3: YS-1-58 (peptide)
chain: FGFWWKTFG
modifications: not fully specified; PTR 3219 core; fluorescein thiourea, Gly linker; cyclic GlyS2* to GlyS2*; D-Phe1, D-Trp; C-terminal amide
B4: YS-1-44 (peptide)
chain: GFWWKTFG
modifications: not fully specified; PTR 3213 core; fluorescein amide, betaAla linker; cyclic GlyS2* to GlyS2*; D-Trp; C-terminal amide
B5: YS-1-29 (peptide)
chain: XFWWKTFG
modifications: not fully specified; PTR 3173-NH2 core; X = GABA; fluorescein amide, aminopentanoic linker; backbone cyclic; D-Trp; C-terminal amide
B6: YS-1-54 (peptide)
chain: GFWWKTFG
modifications: not fully specified; PTR 3213 core; fluorescein thiourea, no linker; cyclic GlyS2* to GlyS2*; D-Trp; C-terminal amide
B7: YS-1-70 (peptide)
chain: FGFWWKTFG
modifications: not fully specified; PTR 3219 core; 5-(aminothionyl)fluorescein-aminopentanoyl conjugate; cyclic GlyS2* to GlyS2*; D-Phe1, D-Trp; C-terminal amide
B8: YS-1-68 (peptide)
chain: FGFWWKTFG
modifications: not fully specified; PTR 3219 core; 5- and 6-carboxyfluorescein-GABA conjugate; cyclic GlyS2* to GlyS2*; D-Phe1, D-Trp; C-terminal amide
B9: YS-1-62 (peptide)
chain: FGFWWKTFG
modifications: not fully specified; PTR 3219 core; 5-(aminothionyl)fluorescein-betaAla conjugate; cyclic GlyS2* to GlyS2*; D-Phe1, D-Trp; C-terminal amide
B10: YS-1-86 (peptide)
chain: FCFWWKTFG
modifications: not fully specified; PTR 3207 core; 5-(aminothionyl)fluorescein-GABA conjugate; cyclic Cys* to GlyS2*; D-Phe1, D-Trp; C-terminal amide
B11: PTR 1007A-01 (peptide)
chain: XFWWKTFG
modifications: X = Dab; 5- and 6-carboxyfluorescein conjugate; backbone cyclic (Dab* to GlyC3*); D-Trp4; C-terminal GlyC3, amide
B12: YS-1-48 (peptide)
chain: GFWWKTFG
modifications: not fully specified; PTR 3213 core; 5- and 6-carboxyfluorescein-GABA conjugate; cyclic GlyS2* to GlyS2*; D-Trp; C-terminal amide
B13: PTR 1017A-01 (peptide)
chain: KXFWWKTFG
modifications: not fully specified; 5- and 6-carboxyfluorescein-Lys; X = GABA; backbone cyclic (GABA* to GlyC3*); D-Trp; C-terminal amide
B14: YS-1-64 (peptide)
chain: FGFWWKTFG
modifications: not fully specified; PTR 3219 core; 5- and 6-carboxyfluorescein-betaAla conjugate; cyclic GlyS2* to GlyS2*; D-Phe1, D-Trp; C-terminal amide

The target in the first experiment is T1, human SST-R2 (human, UniProt P30874). As to the kind of experiment: competition, SRIF-14 displacement.
T1 sequence (P30874 whole entry): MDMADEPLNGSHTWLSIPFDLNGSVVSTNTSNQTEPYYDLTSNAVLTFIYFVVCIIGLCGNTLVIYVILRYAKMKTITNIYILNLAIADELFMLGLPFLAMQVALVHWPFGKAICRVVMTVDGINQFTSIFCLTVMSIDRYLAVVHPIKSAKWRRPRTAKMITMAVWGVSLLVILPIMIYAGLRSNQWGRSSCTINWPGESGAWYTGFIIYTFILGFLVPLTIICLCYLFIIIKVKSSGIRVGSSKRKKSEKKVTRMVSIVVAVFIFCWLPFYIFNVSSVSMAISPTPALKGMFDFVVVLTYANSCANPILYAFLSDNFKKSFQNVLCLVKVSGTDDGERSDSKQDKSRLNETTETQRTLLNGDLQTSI
For the molecule B1, the IC50 (commonly the midpoint of a concentration-inhibition curve) stood at 9 nM.

On to B2, for which the IC50 turned out to be 13 nM.

The molecule B3 displayed a concentration for half-maximal inhibition (IC50) of 18 nM. This IC50 and that of the molecule before are within 1.5-fold of each other.

B4: the IC50 was 19 nM. This IC50 and that of the molecule before are within 1.5-fold of each other.

Molecule B5 displayed an IC50 of 32 nM.

B6 registered an IC50 of 48 nM.

The next experiment has as its target T1, human SST-R2. Put plainly: competition, 125I-Tyr11-SRIF-14 radioligand.
B7 registered an IC50 of 2.9 nM.

The molecule B8 displayed an IC50 of 5.7 nM.

On to B9, for which the IC50 was 3 nM. This IC50 is about 1.9-fold lower than that of the molecule before.

Regarding B10, the IC50 was determined as 1.7 nM.

The molecule B11 came in with an IC50 of 78 nM.

Take B12: the IC50 worked out at 5.4 nM. Compared with the last molecule, the IC50 is about 14-fold lower.

Turning to B13, the IC50 is 13.2 nM. Compared with the last molecule, the IC50 is about 2.4-fold higher.

Take B14: the IC50 was 3.9 nM.
